Results published in patent publication US20150045540A1 (published 2015).

Legend:
VEGF (Example 4) [1] = molecular target: T1, VEGF (Example 4) (UniProt P15692 27-191); test: binding
T1 chain: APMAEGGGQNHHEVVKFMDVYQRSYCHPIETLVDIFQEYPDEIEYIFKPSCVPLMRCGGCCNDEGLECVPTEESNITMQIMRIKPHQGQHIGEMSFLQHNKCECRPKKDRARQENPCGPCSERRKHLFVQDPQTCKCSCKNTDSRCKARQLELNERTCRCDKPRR

ErbB3 = ErbB3 (UniProt P21860 20-643); test: binding
VEGF (Example 4) [2] = molecular target: T1, VEGF (Example 4); test: VEGF-KDR inhibition
[3] = molecular target: Hepatocyte Growth Factor (HGF), human (human, UniProt P14210 32-728); test: ELISA
[4] = molecular target: T2, Placenta Growth Factor (PlGF), human (human, UniProt P49763 21-149); test: ELISA
T2 chain: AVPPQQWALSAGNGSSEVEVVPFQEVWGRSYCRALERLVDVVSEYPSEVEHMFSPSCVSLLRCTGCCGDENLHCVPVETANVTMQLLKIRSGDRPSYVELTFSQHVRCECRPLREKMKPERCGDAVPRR

Chain of ErbB3 (P21860 20-643): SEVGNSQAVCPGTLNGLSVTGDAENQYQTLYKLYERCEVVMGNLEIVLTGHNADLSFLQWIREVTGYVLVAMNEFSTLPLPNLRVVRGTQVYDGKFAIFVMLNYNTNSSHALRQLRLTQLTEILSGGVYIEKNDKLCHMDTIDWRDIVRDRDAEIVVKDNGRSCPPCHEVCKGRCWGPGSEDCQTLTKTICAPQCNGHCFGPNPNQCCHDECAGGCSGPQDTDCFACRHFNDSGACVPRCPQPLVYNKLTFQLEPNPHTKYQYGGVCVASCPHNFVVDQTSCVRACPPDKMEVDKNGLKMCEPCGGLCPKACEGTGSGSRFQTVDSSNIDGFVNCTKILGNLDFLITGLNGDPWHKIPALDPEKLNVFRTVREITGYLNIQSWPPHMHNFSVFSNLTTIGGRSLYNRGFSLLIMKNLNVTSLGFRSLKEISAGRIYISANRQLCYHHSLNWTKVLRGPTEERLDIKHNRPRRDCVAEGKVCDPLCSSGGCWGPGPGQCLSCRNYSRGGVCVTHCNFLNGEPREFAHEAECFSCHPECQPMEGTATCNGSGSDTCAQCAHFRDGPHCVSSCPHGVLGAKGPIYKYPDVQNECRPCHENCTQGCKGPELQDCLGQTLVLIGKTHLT
Chain of Hepatocyte Growth Factor (HGF), human (P14210 32-728): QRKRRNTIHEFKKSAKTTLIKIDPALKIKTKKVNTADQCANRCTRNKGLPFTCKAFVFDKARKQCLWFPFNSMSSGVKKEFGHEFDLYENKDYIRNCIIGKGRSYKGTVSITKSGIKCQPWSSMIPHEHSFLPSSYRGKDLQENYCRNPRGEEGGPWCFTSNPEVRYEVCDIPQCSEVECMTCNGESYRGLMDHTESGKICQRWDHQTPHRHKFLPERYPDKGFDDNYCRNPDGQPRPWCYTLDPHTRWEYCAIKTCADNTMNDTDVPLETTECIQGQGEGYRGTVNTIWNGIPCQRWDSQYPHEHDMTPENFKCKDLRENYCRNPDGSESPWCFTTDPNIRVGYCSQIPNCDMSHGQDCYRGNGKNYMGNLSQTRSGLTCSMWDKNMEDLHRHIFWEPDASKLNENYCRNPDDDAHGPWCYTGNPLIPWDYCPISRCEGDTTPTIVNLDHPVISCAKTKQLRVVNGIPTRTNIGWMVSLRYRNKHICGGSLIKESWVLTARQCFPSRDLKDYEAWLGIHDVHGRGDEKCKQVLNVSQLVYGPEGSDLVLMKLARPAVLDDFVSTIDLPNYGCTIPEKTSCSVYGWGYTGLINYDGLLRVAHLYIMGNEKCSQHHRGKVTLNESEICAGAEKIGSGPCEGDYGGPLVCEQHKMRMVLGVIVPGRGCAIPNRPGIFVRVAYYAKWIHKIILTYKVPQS

B1: 2 (antibody, V domains shown)
V domain 1: FQPVLHQPPAMSSALGTTIRLTCTLRNDHDIGVYSVYWYQQRPGHPPRFLLRYFSQSDKSQGPQVPPRFSGSKDVARNRGYLSISELQPEDEAMYYCAMGARSSVTHVFGSGTQLTVLS
V domain 2: QPVLHQPPAMSSALGTTIRLTCTLRNDHDIGVYSVYWYQQRPGHPPRFLLRYFSQSDKSQGPQVPPRFSGSKDVARNRGYLSISELQPEDEAMYYCAMGARSSVTHVFGSGTQLTVLS
Question: With B1 as the binder, how does the EC50 (VEGF (Example 4) [1]) read?
Answer: 0.016 nM

Question: What about the EC50 (ErbB3) of the same binder?
Answer: 0.051 nM

Question: What about the IC50 (VEGF (Example 4) [2]) of the same binder?
Answer: 0.391 nM

B2: 5 (antibody, V domains shown)
V domain 1: PQPVLHQPPAMSSALGTTIRLTCTLRNDHDIGVYSVYWYQQRPGHPPRFLLRYFSQSDKSQGPQVPPRFSGSKDVARNRGYLSISELQPEDEAMYYCAMGARSSVTHVFGSGTQLTVLS
V domain 2: QPVLHQPPAMSSALGTTIRLTCTLRNDHDIGVYSVYWYQQRPGHPPRFLLRYFSQSDKSQGPQVPPRFSGSKDVARNRGYLSISELQPEDEAMYYCAMGARSSVTHVFGSGTQLTVLS
Question: Which EC50 (VEGF (Example 4) [1]) does the source give for B2 here?
Answer: 0.012 nM

Question: What about the EC50 (ErbB3) of the same binder?
Answer: 0.058 nM

Question: What about the IC50 (VEGF (Example 4) [2]) of the same binder?
Answer: 0.409 nM

B3: 3 (antibody, V domains shown)
V domain 1: FQPVLHQPPAMSSALGTTIRLTCTLRNDHDIGVYSVYWYQQRPGHPPRFLLRYFSQSDKSQGPQVPPRFSGSKDVARNRGYLSISELQPEDEAMYYCAMGARSSVTHVFGSGTQLTVLS
V domain 2: QPVLHQPPAMSSALGTTIRLTCTLRNDHDIGVYSVYWYQQRPGHPPRFLLRYFSQSDKSQGPQVPPRFSGSKDVARNRGYLSISELQPEDEAMYYCAMGARSSVTHVFGSGTQLTVLS
Question: How did the EC50 (VEGF (Example 4) [1]) turn out when B3 was run?
Answer: 0.015 nM

Question: What about the EC50 (ErbB3) of the same binder?
Answer: 0.05 nM

Question: And the IC50 (VEGF (Example 4) [2])?
Answer: 0.429 nM

B4: 6 (antibody, V domains shown)
V domain 1: PQPVLHQPPAMSSALGTTIRLTCTLRNDHDIGVYSVYWYQQRPGHPPRFLLRYFSQSDKSQGPQVPPRFSGSKDVARNRGYLSISELQPEDEAMYYCAMGARSSVTHVFGSGTQLTVLS
V domain 2: QPVLHQPPAMSSALGTTIRLTCTLRNDHDIGVYSVYWYQQRPGHPPRFLLRYFSQSDKSQGPQVPPRFSGSKDVARNRGYLSISELQPEDEAMYYCAMGARSSVTHVFGSGTQLTVLS
Question: With B4 as the binder, how does the EC50 (VEGF (Example 4) [1]) read?
Answer: 0.012 nM

Question: What about the EC50 (ErbB3) of the same binder?
Answer: 0.048 nM

Question: What about the IC50 (VEGF (Example 4) [2]) of the same binder?
Answer: 0.589 nM

B5: HC 8/SLC 6 (antibody)
chain 1: GQGTLVTVSSASTKGPSVQPVLHQPPAMSSALGTTIRLTCTLRNDHDIGVYSVYWYQQRPGHPPRFLLRYFSQSDKSQGPQVPPRFSGSKDVARNRGYLSISELQPEDEAMYYCAMGARSRCWPRGFQSKHNSVTHVFGSGTQLTVLSQPKATPSVTLFPPSSEELQANKATLVCLMNDFYPGILTVTWKADGTPITQGVEMTTPSKQSNNKYAASSYLSLTPEQWRSRRSYSCQVMHEGSTVEKTVAPAECS
chain 2: MSWAPVLLMLFVYCTGCGPQPVLHQPPAMSSALGTTIRLTCTLRNDHDIGVYSVYWYQQRPGHPPRFLLRYFSQSDKSQGPQVPPRFSGSKDVARNRGYLSISVTHVFGSGTQLTVLSQPKATQVQLVQ
Question: Which results are given for B5?
Answer: EC50 [3]: 0.061 nM; EC50 [4]: 0.128 nM

B6: HC 8/SLC 15 (antibody)
chain 1: GQGTLVTVSSASTKGPSVQPVLHQPPAMSSALGTTIRLTCTLRNDHDIGVYSVYWYQQRPGHPPRFLLRYFSQSDKSQGPQVPPRFSGSKDVARNRGYLSISELQPEDEAMYYCAMGARSRCWPRGFQSKHNSVTHVFGSGTQLTVLSQPKATPSVTLFPPSSEELQANKATLVCLMNDFYPGILTVTWKADGTPITQGVEMTTPSKQSNNKYAASSYLSLTPEQWRSRRSYSCQVMHEGSTVEKTVAPAECS
chain 2: MSWAPVLLMLFVYCTGCGPQPVLHQPPAMSSALGTTIRLTCTLRNDHDIGVYSVYWYQQRPGHPPRFLLRYFSQSDKSQGPQVPPRFSGSKDVARNRGYLSISVTHVFGSGTQLTVLSQPKATPSVTGGGGSQVQLVQ
Question: For B6, which EC50 [3] is on record?
Answer: 0.048 nM

Question: What about the EC50 [4] of the same binder?
Answer: 0.05 nM

B7: HC 7/SLC 2 (antibody)
chain 1: GQGTLVTVSSASTKGPSQPVLHQPPAMSSALGTTIRLTCTLRNDHDIGVYSVYWYQQRPGHPPRFLLRYFSQSDKSQGPQVPPRFSGSKDVARNRGYLSISELQPEDEAMYYCAMGARSRCWPRGFQSKHNSVTHVFGSGTQLTVLSQPKATPSVTLFPPSSEELQANKATLVCLMNDFYPGILTVTWKADGTPITQGVEMTTPSKQSNNKYAASSYLSLTPEQWRSRRSYSCQVMHEGSTVEKTVAPAECS
chain 2: MSWAPVLLMLFVYCTGCGPQPVLHQPPAMSSALGTTIRLTCTLRNDHDIGVYSVYWYQQRPGHPPRFLLRYFSQSDKSQGPQVPPRFSGSKDVARNRGYLSISVTHVFGSGTQLTVLSQQVQLVQ
Question: How did the EC50 [3] turn out when B7 was run?
Answer: 0.057 nM

Question: What about the EC50 [4] of the same binder?
Answer: 0.2 nM

B8: HC 10/SLC 5 (antibody)
chain 1: GQGTLVTVSSASTKGPSVFPQPVLHQPPAMSSALGTTIRLTCTLRNDHDIGVYSVYWYQQRPGHPPRFLLRYFSQSDKSQGPQVPPRFSGSKDVARNRGYLSISELQPEDEAMYYCAMGARSRCWPRGFQSKHNSVTHVFGSGTQLTVLSQPKATPSVTLFPPSSEELQANKATLVCLMNDFYPGILTVTWKADGTPITQGVEMTTPSKQSNNKYAASSYLSLTPEQWRSRRSYSCQVMHEGSTVEKTVAPAECS
chain 2: MSWAPVLLMLFVYCTGCGPQPVLHQPPAMSSALGTTIRLTCTLRNDHDIGVYSVYWYQQRPGHPPRFLLRYFSQSDKSQGPQVPPRFSGSKDVARNRGYLSISVTHVFGSGTQLTVLSQPKAQVQLVQ
Question: Which results are given for B8?
Answer: EC50 [3]: 0.061 nM; EC50 [4]: 0.181 nM

B9: HC 9/SLC 5 (antibody)
chain 1: GQGTLVTVSSASTKGPSVFQPVLHQPPAMSSALGTTIRLTCTLRNDHDIGVYSVYWYQQRPGHPPRFLLRYFSQSDKSQGPQVPPRFSGSKDVARNRGYLSISELQPEDEAMYYCAMGARSRCWPRGFQSKHNSVTHVFGSGTQLTVLSQPKATPSVTLFPPSSEELQANKATLVCLMNDFYPGILTVTWKADGTPITQGVEMTTPSKQSNNKYAASSYLSLTPEQWRSRRSYSCQVMHEGSTVEKTVAPAECS
chain 2: MSWAPVLLMLFVYCTGCGPQPVLHQPPAMSSALGTTIRLTCTLRNDHDIGVYSVYWYQQRPGHPPRFLLRYFSQSDKSQGPQVPPRFSGSKDVARNRGYLSISVTHVFGSGTQLTVLSQPKAQVQLVQ
Question: B9 was tested. Which EC50 [3] did it give?
Answer: 0.065 nM

Question: And the EC50 [4]?
Answer: 0.172 nM

B10: HC 6/SLC 7 (antibody)
chain 1: GQGTLVTVSSASTKGPQPVLHQPPAMSSALGTTIRLTCTLRNDHDIGVYSVYWYQQRPGHPPRFLLRYFSQSDKSQGPQVPPRFSGSKDVARNRGYLSISELQPEDEAMYYCAMGARSRCWPRGFQSKHNSVTHVFGSGTQLTVLSQPKATPSVTLFPPSSEELQANKATLVCLMNDFYPGILTVTWKADGTPITQGVEMTTPSKQSNNKYAASSYLSLTPEQWRSRRSYSCQVMHEGSTVEKTVAPAECS
chain 2: MSWAPVLLMLFVYCTGCGPQPVLHQPPAMSSALGTTIRLTCTLRNDHDIGVYSVYWYQQRPGHPPRFLLRYFSQSDKSQGPQVPPRFSGSKDVARNRGYLSISVTHVFGSGTQLTVLSQPKATPQVQLVQ
Question: B10 was tested. Which EC50 [3] did it give?
Answer: 0.056 nM

Question: And the EC50 [4]?
Answer: 0.083 nM

B11: HC 4/SLC 8 (antibody)
chain 1: GQGTLVTVSSASTKQPVLHQPPAMSSALGTTIRLTCTLRNDHDIGVYSVYWYQQRPGHPPRFLLRYFSQSDKSQGPQVPPRFSGSKDVARNRGYLSISELQPEDEAMYYCAMGARSRCWPRGFQSKHNSVTHVFGSGTQLTVLSQPKATPSVTLFPPSSEELQANKATLVCLMNDFYPGILTVTWKADGTPITQGVEMTTPSKQSNNKYAASSYLSLTPEQWRSRRSYSCQVMHEGSTVEKTVAPAECS
chain 2: MSWAPVLLMLFVYCTGCGPQPVLHQPPAMSSALGTTIRLTCTLRNDHDIGVYSVYWYQQRPGHPPRFLLRYFSQSDKSQGPQVPPRFSGSKDVARNRGYLSISVTHVFGSGTQLTVLSQPKATPSQVQLVQ
Question: With B11 as the binder, how does the EC50 [3] read?
Answer: 0.061 nM

Question: What about the EC50 [4] of the same binder?
Answer: 0.18 nM

B12: HC 9/SLC 3 (antibody)
chain 1: GQGTLVTVSSASTKGPSVFQPVLHQPPAMSSALGTTIRLTCTLRNDHDIGVYSVYWYQQRPGHPPRFLLRYFSQSDKSQGPQVPPRFSGSKDVARNRGYLSISELQPEDEAMYYCAMGARSRCWPRGFQSKHNSVTHVFGSGTQLTVLSQPKATPSVTLFPPSSEELQANKATLVCLMNDFYPGILTVTWKADGTPITQGVEMTTPSKQSNNKYAASSYLSLTPEQWRSRRSYSCQVMHEGSTVEKTVAPAECS
chain 2: MSWAPVLLMLFVYCTGCGPQPVLHQPPAMSSALGTTIRLTCTLRNDHDIGVYSVYWYQQRPGHPPRFLLRYFSQSDKSQGPQVPPRFSGSKDVARNRGYLSISVTHVFGSGTQLTVLSQPQVQLVQ
Question: Which EC50 [3] does the source give for B12 here?
Answer: 0.078 nM

Question: And the EC50 [4]?
Answer: 0.136 nM

B13: HC 4/SLC 3 (antibody)
chain 1: GQGTLVTVSSASTKQPVLHQPPAMSSALGTTIRLTCTLRNDHDIGVYSVYWYQQRPGHPPRFLLRYFSQSDKSQGPQVPPRFSGSKDVARNRGYLSISELQPEDEAMYYCAMGARSRCWPRGFQSKHNSVTHVFGSGTQLTVLSQPKATPSVTLFPPSSEELQANKATLVCLMNDFYPGILTVTWKADGTPITQGVEMTTPSKQSNNKYAASSYLSLTPEQWRSRRSYSCQVMHEGSTVEKTVAPAECS
chain 2: MSWAPVLLMLFVYCTGCGPQPVLHQPPAMSSALGTTIRLTCTLRNDHDIGVYSVYWYQQRPGHPPRFLLRYFSQSDKSQGPQVPPRFSGSKDVARNRGYLSISVTHVFGSGTQLTVLSQPQVQLVQ
Question: With B13 as the binder, how does the EC50 [3] read?
Answer: 0.06 nM

Question: And the EC50 [4]?
Answer: 0.147 nM

B14: HC 9/SLC 4 (antibody)
chain 1: GQGTLVTVSSASTKGPSVFQPVLHQPPAMSSALGTTIRLTCTLRNDHDIGVYSVYWYQQRPGHPPRFLLRYFSQSDKSQGPQVPPRFSGSKDVARNRGYLSISELQPEDEAMYYCAMGARSRCWPRGFQSKHNSVTHVFGSGTQLTVLSQPKATPSVTLFPPSSEELQANKATLVCLMNDFYPGILTVTWKADGTPITQGVEMTTPSKQSNNKYAASSYLSLTPEQWRSRRSYSCQVMHEGSTVEKTVAPAECS
chain 2: MSWAPVLLMLFVYCTGCGPQPVLHQPPAMSSALGTTIRLTCTLRNDHDIGVYSVYWYQQRPGHPPRFLLRYFSQSDKSQGPQVPPRFSGSKDVARNRGYLSISVTHVFGSGTQLTVLSQPKQVQLVQ
Question: Which EC50 [3] does the source give for B14 here?
Answer: 0.063 nM

Question: What about the EC50 [4] of the same binder?
Answer: 0.164 nM
